Patent US20110014209A1

Assays:
[1] = biological target: CD81 MBP-LEL (maltose-binding protein fused to the CD81 large extracellular loop, residues 113-201) (human) (UniProt P60033); assay: CD81 MBP-LEL solid-phase assay, virion-incorporated E2
[2] = biological target: HCV E1 glycoprotein (H77c), expressed from the pE1E2 vectors (hepatitis C virus H77c) (UniProt P27958); assay: cell-based or functional assay
[3] = biological target: full-length human CD81 expressed on transfected CHO-K1 cells (human) (UniProt P60033); assay: binding to CD81-transfected CHO-K1 cells, 125I-9E10 detection
full-length human CD81 expressed on transfected CHO-K1 cells (human), sequence (P60033 whole entry): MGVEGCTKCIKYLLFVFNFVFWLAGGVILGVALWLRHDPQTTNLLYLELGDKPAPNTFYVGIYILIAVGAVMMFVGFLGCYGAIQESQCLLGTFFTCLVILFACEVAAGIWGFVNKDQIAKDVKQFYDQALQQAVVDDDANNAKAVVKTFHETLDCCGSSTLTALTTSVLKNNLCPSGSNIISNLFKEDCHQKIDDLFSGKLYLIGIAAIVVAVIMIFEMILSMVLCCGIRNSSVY

CD81 MBP-LEL (maltose-binding protein fused to the CD81 large extracellular loop, residues 113-201) (human), sequence (P60033 113-201 limits assumed): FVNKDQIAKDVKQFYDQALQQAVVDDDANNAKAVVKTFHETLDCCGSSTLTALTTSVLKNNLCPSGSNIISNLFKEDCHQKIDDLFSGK

## E2 glycoprotein expressed from pE1E2 Δ1 (HVR1 deletion, residues 387-408 replaced by GSSG) (from UniProt P27958 409-746)
[1]
  fold increase in the overall binding curve compared to wild-type: 4 fold

## E2 glycoprotein expressed from pE1E2 Δ3 link (igVR deletion with extended linker) (from UniProt P27958 384-571; P27958 579-746)
[2]
  E1E2-mediated entry of pseudotyped HIV-1 particles into Huh7 cells (luciferase): 8 fold

## E2 Δ12-myc (from UniProt P27958 384-386; P27958 409-459; P27958 486-661)
[3]
  percent reduction in CD81 binding compared to E2 Δ23-myc: 50%
